From patent US20260078197A1 (BIOCYTOGEN PHARMACEUTICALS BEIJING, published 2026)

B1: 24C9 (antibody, human IgG1, V domains shown)
VH: EVQLVQSGGGVVQPGRSLRLSCAASGFTLSSYGMYWVRQAPGKGREWVAFIRFDESKKYYADSVKGRFTISRDNSKNTLYLQMNSLRAEDTAVYYCARDGEGGYCTNGVCHGLDVWGQGTTVTVSS
notes: Heavy-chain antibody without light chain; also called anti-TFR1 antibody 24C9
B2: 23B8 (antibody, V domains shown)
VH: QVTLKESGGGLVKPGGSLRLSCAASGFPFSNAWMNWVRQAPGKGLEWVGHIKSKTDGGTTDYAAPVKGRFTISRDDSKNMVFLQMNSLKTEDTAVYYCTTDRAYCGGDCSHYYYHDLDVWGQGTTVTVSS
notes: Heavy-chain antibody without light chain; also called anti-TFR1 antibody 23B8
B3: JR141-N (antibody, V domains shown)
VH: EVQLVQSGAEVKKPGESLKISCKGSGYSFTNYWLGWVRQMPGKGLEWMGDIYPGGDYPTYSEKFKVQVTISADKSISTAYLQWSSLKASDTAMYYCARSGNYDEVAYWGQGTLVTVSS
VL: DIVMTQTPLSLSVTPGQPASISCRSSQSLVHSNGNTYLHWYLQKPGQSPQLLIYKVSNRFSGVPDRFSGSGSGTDFTLKISRVEAEDVGVYYCSQSTHVPWTFGQGTKVEIK
notes: also called positive control; JR141 VH and VL on human IgG1 N297A
B4: 24A1 (antibody, human IgG1, V domains shown)
VH: EVQLVESGGGLVQPGGSLRLTCAASGFTFSSYAMSWVRQAPGKGLERVSEISGSGSSTNYADSVKGRFTISRDNSKNTLYLQMNSLRAEDTAVYYCAKDDSSGWAFNIWDQGTVVTVSS
notes: Heavy-chain antibody without light chain; also called anti-TFR1 antibody 24A1
B5: 24G5 (antibody, human IgG1, V domains shown)
VH: QLQLQESGGGLVQPGGSLRLTCAASGFTFSSFAMSWVRQAPGKGLERVSEISDSGGNTYYADSVKGRFTISRDNSKNTLYLQMNSLRAEDTAVYYCAKDDSSGWAFNIWDQGTVVTVSS
notes: Heavy-chain antibody without light chain; also called anti-TFR1 antibody 24G5

Legend:
[1] = target: T1, human TFR1 expressed on CHO-S cells (human, UniProt P02786 1-760); experiment: flow cytometry on CHO-S-hTFR1 cells; anti-hIgG-Fc Alexa Fluor 647 secondary
T1 construct: CHO-S cells transfected with a vector expressing human TFR1; also called hTFR1; CHO-S-hTFR1 cells
Method: (§1) CHO-S-hTFR1 cells or CHO-S-fasTFR1 cells were transferred to a 96-well plate at a density of 10⁵ cells/well respectively. Serially diluted sample anti-TFR1 antibodies were added to the 96-well plate, and incubated at 4° C. for 30 minutes. PBS was used as a negative control (NC).

[2] = target: T2, His-tagged human TFR1 (transferrin receptor 1) protein (human, UniProt P02786 89-760); experiment: SPR, Biacore 8K; antibody captured on Protein A chip, hTFR1-His as analyte; 1:1 Langmuir fit
T2 construct: Bought protein; The order of the tag and the receptor part is not known; also called hTFR1-His; ACROBiosystems Cat #: CD1-H5243; not shown: His tag
Method: (§2) Purified anti-TFR1 antibodies was captured on the Protein A chip (Series S Sensor Chip Protein A) for the detection. Purified anti-TFR1 antibodies (1 μg/mL) was loaded at 10 μL/min to bind to hTFR1-His and fasTFR1-His (200 nM). The flow rate was 30 μL/min. The binding and dissociation time were set to 180 seconds and 600 seconds, respectively. The chip was regenerated after the last injection of each titration with a glycine solution (pH 2.0) at […] for 30 seconds.
(§3) As a person of ordinary skill in the art would understand, the same method with appropriate adjustments for parameters (e.g., antibody concentration) was performed for each tested antibody.

[3] = target: T2, His-tagged human TFR1 (transferrin …); experiment: BLI (Octet) binning; hTFR1-His captured on HIS1K; ratio = binding of analyte 2 / binding of analyte 1; competitor (analyte 1, bound first): 24C9
Method: (§4) Relative positions of target protein epitope between a pair of purified anti-TFR1 antibodies were analyzed by Biolayer Interferometry (BLI) using ForteBio Octet system at 30° C. 1×HBS-EP+ buffer (10 mM 4-(2-hydroxyethyl)-1-piperazineethanesulfonic acid (HEPES), 150 mM NaCl, 3 mM ethylenediaminetetraacetic acid (EDTA) and 0.05% P20, pH7.4) diluted from HBS-EP+ buffer (10×) was used as the running buffer throughout the experiment. About 10 μg/mL of hTFR1-His protein was captured by HIS1K (Anti-Penta-HIS) for 200 seconds, and 200 nM of antibody (analyte 1) was injected at a flow rate of 30 μL/min to bind the ligand. Another antibody (analyte 2) was injected under the same conditions to determine whether the binding of different antibodies interfered with each other. The binding time was 300 seconds for each antibody.
(§5) The binding value of each antibody was obtained using Data Analysis HT 12.0. To quantify the interference of one antibody binding to another, a binding ratio was calculated to compare each pair of antibodies. The binding ratio is defined as the binding value of the second antibody (analyte 2), divided by the binding value of the first antibody (analyte 1).

[4] = target: T2, His-tagged human TFR1 (transferrin …); experiment: BLI (Octet) binning; hTFR1-His captured on HIS1K; ratio = binding of analyte 2 / binding of analyte 1; competitor (analyte 1, bound first): 24G5
Method: as §4, §5

[5] = target: T2, His-tagged human TFR1 (transferrin …); experiment: BLI (Octet) binning; hTFR1-His captured on HIS1K; ratio = binding of analyte 2 / binding of analyte 1; competitor (analyte 1, bound first): 24A1
Method: as §4, §5

[6] = target: T2, His-tagged human TFR1 (transferrin …); experiment: BLI (Octet) binning; hTFR1-His captured on HIS1K; ratio = binding of analyte 2 / binding of analyte 1; competitor (analyte 1, bound first): 23B8
Method: as §4, §5

[7] = target: T2, His-tagged human TFR1 (transferrin …); experiment: BLI (Octet) binning; hTFR1-His captured on HIS1K; ratio = binding of analyte 2 / binding of analyte 1; competitor (analyte 1, bound first): JR141-N
Method: as §4, §5

[8] = target: T3, His-tagged monkey TFR1 protein (monkey (Macaca fascicularis)); experiment: SPR, Biacore 8K; antibody captured on Protein A chip, fasTFR1-His as analyte; 1:1 Langmuir fit
T3 construct: Bought protein; The order of the tag and the receptor part is not known; also called fasTFR1-His; ACROBiosystems Cat #: TFR-C524a; not shown: His tag
T3 chain: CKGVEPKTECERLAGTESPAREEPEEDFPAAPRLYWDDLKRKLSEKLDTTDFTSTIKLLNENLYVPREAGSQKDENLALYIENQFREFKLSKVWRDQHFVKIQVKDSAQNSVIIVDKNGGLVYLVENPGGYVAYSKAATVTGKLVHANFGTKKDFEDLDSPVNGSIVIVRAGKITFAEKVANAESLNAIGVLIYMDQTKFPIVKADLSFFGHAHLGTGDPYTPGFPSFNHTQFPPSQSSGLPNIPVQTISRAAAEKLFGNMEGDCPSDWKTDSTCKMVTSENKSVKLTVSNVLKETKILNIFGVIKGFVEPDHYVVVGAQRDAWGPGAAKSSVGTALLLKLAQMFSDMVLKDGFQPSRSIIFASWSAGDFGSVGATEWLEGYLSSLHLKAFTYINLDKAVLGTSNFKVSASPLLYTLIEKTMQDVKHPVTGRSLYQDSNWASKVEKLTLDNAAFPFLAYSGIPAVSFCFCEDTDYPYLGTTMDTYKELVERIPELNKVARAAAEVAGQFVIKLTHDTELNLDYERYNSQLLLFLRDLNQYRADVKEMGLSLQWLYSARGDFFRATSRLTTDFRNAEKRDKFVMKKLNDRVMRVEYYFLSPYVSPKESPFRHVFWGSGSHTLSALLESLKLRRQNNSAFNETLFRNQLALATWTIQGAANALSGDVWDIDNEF
Method: as §2, §3

[9] = target: T4, Macaca fascicularis (crab-eating macaque) TFR1 expressed on CHO-S cells (Macaca fascicularis (crab-eating …)); experiment: flow cytometry on CHO-S-fasTFR1 cells; anti-hIgG-Fc Alexa Fluor 647 secondary
T4 construct: CHO-S cells transfected with a vector expressing fasTFR1; also called fasTFR1; CHO-S-fasTFR1 cells
T4 chain: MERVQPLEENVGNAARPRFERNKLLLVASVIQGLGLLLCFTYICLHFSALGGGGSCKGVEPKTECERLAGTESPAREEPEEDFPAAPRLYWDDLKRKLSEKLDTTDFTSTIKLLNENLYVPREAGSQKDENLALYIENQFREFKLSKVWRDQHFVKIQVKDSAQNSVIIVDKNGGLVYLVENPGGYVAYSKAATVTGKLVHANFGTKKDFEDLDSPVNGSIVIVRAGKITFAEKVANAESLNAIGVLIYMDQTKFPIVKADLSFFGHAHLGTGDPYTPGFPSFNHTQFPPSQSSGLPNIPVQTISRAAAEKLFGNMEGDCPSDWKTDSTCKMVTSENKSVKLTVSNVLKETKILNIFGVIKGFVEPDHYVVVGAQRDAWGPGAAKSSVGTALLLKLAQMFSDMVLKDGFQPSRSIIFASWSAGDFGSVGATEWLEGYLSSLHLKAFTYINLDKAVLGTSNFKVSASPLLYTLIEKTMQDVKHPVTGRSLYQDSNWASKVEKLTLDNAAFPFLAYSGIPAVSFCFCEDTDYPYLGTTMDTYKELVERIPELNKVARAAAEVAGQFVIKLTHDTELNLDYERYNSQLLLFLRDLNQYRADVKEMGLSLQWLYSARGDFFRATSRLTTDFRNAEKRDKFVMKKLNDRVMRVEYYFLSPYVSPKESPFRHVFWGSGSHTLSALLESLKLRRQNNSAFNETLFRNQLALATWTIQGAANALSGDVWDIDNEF
Method: as §1

T2 sequence (P02786 89-760 limits assumed): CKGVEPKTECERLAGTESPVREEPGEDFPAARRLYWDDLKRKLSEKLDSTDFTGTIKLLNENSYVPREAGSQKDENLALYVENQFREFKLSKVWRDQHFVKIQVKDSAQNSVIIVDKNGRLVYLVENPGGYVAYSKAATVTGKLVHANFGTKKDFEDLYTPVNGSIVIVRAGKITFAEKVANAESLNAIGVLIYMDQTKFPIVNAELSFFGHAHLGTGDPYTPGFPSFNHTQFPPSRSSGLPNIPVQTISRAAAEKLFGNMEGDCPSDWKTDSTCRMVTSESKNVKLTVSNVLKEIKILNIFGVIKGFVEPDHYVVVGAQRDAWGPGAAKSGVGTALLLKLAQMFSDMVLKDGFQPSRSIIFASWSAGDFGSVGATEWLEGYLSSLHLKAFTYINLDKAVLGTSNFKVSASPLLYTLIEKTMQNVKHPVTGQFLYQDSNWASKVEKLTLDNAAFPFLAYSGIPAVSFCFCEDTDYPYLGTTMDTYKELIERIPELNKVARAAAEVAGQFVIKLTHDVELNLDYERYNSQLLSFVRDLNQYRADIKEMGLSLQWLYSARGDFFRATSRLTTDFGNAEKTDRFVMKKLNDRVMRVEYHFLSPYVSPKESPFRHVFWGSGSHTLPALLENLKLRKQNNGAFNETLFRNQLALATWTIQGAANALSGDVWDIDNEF
T1 sequence (P02786 whole entry): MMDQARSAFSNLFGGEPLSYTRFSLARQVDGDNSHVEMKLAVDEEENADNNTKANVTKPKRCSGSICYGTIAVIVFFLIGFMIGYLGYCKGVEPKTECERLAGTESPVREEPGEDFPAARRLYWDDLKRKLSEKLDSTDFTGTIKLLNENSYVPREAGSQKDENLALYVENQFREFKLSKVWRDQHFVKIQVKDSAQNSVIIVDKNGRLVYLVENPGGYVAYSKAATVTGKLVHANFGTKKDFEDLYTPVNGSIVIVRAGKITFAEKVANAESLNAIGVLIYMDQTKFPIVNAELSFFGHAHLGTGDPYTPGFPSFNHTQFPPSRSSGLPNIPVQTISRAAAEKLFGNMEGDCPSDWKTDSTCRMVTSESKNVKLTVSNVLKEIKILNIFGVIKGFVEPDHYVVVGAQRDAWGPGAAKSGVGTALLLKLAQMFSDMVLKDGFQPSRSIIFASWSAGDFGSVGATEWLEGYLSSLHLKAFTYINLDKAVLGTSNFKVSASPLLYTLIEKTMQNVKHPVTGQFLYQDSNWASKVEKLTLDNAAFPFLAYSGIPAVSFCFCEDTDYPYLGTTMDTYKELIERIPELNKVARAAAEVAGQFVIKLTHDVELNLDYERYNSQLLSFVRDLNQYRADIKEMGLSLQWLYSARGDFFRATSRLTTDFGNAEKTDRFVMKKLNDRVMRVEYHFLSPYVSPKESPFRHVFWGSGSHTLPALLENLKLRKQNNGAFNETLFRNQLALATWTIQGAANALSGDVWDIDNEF

Row | Binder | Percentage of Positive Cells [1] | Kd [2] | koff [2] | kon [2] | binding ratio [3] | binding ratio [4] | binding ratio [5] | binding ratio [6] | binding ratio [7] | Kd [8] | koff [8] | kon [8] | Percentage of Positive Cells [9]
1 | B1 | 45.8% | 14.3 nM | 0.000383 s⁻¹ | 26800 M⁻¹ s⁻¹ | 0 | 0.2 | 0.1 | 0.6 | 0.8 |  |  |  | 
2 | B2 | 38.8% | 8.73 nM | 0.000132 s⁻¹ | 15100 M⁻¹ s⁻¹ | 1.4 | 0.3 | 0.2 | 0.1 | 1.1 | 19.5 nM | 0.00799 s⁻¹ | 410000 M⁻¹ s⁻¹ | 39.6%
3 | B3 | 45% |  |  |  | 1.1 | 0 | 0 | 0.7 | 0 |  |  |  | 37.2%
4 | B4 | 56.4% | 2.93 nM | 7.68e-05 s⁻¹ | 26200 M⁻¹ s⁻¹ | 0.1 | 0.1 | 0.1 | 0 | 0.3 | 2.32 nM | 0.000101 s⁻¹ | 43600 M⁻¹ s⁻¹ | 50.9%
5 | B5 | 54.3% | 2.05 nM | 8.68e-05 s⁻¹ | 42400 M⁻¹ s⁻¹ | 0 | 0 | 0 | 0 | 0.2 | 1.39 nM | 8.79e-05 s⁻¹ | 63300 M⁻¹ s⁻¹ | 51.2%
